± gives the standard deviation of the averaged measurements.
Tests used:
Saccharomyces cerevisiae [1] = assay: protein stability index of tFT-peptide fusion in wild type (PSI (0-1 scale)); higher = more stable (slower turnover); details: genetic background: wild type
Saccharomyces cerevisiae [2] = assay: protein stability index of tFT-peptide fusion in deletion strain of DOA10 (PSI (0-1 scale)); higher = more stable (slower turnover)
Method: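 MPS profiling in S. cerevisiae of two library types built from selected 12-aa C-degron peptides (IN1, IN2, LN1, LN3, VN2, R1-R5, W1-W3, Atg1 and Rpa12 C-termini): saturation mutagenesis libraries and C-terminal +1 capping libraries (13 aa). Each peptide is fused to the C-terminus of a sfGFP-mCherry timer, after a GGGS linker. Cells are FACS-sorted into 8 mCherry/sfGFP bins and sequenced. PSI runs from 0 (unstable) to 1 (stable), measured once in wild type and in the das1Δ or doa10Δ background.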

Saccharomyces cerevisiae [3] = assay: protein stability index of tFT-peptide fusion in deletion strain of DAS1 (PSI (0-1 scale)); higher = more stable (slower turnover)
Saccharomyces cerevisiae [4] = assay: protein stability index of tFT-peptide fusion (C-terminal peptide) (PSI (0-1 scale)); higher = more stable (slower turnover)
Method: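 MPS profiling in S. cerevisiae of the tFT-X12 degron library: putative degron peptides plus stable controls, 12 aa, fused to the C-terminus of a sfGFP-mCherry timer. Cells are FACS-sorted into 8 mCherry/sfGFP bins and deep-sequenced. PSI runs from 0 (unstable) to 1 (stable). Backgrounds are wild type, das1Δ and doa10Δ at 30 °C, and wild type, das1Δ, cdc34-1 and cdc53-1 at 37 °C; 2-3 technical replicates each.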

Saccharomyces cerevisiae [5] = assay: as above; details: genetic background: wild type; temperature: 30 C
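For protein stability index of tFT-peptide fusion (C-terminal peptide) in this document: PSI is a weighted mean of sequencing reads over stability bins, variants kept only with over 10 reads, mCherry proximal and sfGFP distal, peptide attached via GGGS linker.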
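For protein stability index of tFT-peptide fusion in deletion strain of DAS1 in this document: PSI is a weighted mean of each variant's read distribution over the sorted stability bins, computed only for variants having over 10 reads in total.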
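For protein stability index of tFT-peptide fusion in deletion strain of DOA10 in this document: PSI per variant is the weighted mean of its sequencing read distribution over the sorted stability bins, counting only variants with over 10 reads summed across bins.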
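For protein stability index of tFT-peptide fusion in wild type in this document: PSI derived as read-weighted mean over the 8 sorting bins, only variants exceeding 10 total reads kept, mCherry placed adjacent to the peptide and sfGFP distal.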

| Sequence | protein stability index (Saccharomyces cerevisiae [1]) | protein stability index (Saccharomyces cerevisiae [3]) | other results |
| --- | --- | --- | --- |
| ACTLPMCPLLLR | 0.318 | – | protein stability index (Saccharomyces cerevisiae [2]): 0.678 |
| AIKLPMCPLLLR | 0.276 | – | protein stability index (Saccharomyces cerevisiae [2]): 0.652 |
| AINLPMCPLLLR | 0.243 | – | protein stability index (Saccharomyces cerevisiae [2]): 0.656 |
| AITAPMCPLLLR | 0.472 | – | protein stability index (Saccharomyces cerevisiae [2]): 0.66 |
| AITDPMCPLLLR | 0.603 | – | protein stability index (Saccharomyces cerevisiae [2]): 0.693 |
| AITEPMCPLLLR | 0.593 | – | protein stability index (Saccharomyces cerevisiae [2]): 0.648 |
| AITLPMCDLLLR | 0.639 | – | protein stability index (Saccharomyces cerevisiae [2]): 0.675 |
| AITLPMCELLLR | 0.511 | – | protein stability index (Saccharomyces cerevisiae [2]): 0.676 |
| AITLPMCFLLLR | 0.0902 | – | protein stability index (Saccharomyces cerevisiae [2]): 0.62 |
| AITLPMCKLLLR | 0.392 | – | protein stability index (Saccharomyces cerevisiae [2]): 0.663 |
| AITLPMCPKLLR | 0.643 | – | protein stability index (Saccharomyces cerevisiae [2]): 0.671 |
| AITLPMCPLHLR | 0.566 | – | protein stability index (Saccharomyces cerevisiae [2]): 0.68 |
| AITLPMCPLILR | 0.238 | – | protein stability index (Saccharomyces cerevisiae [2]): 0.656 |
| AITLPMCPLKLR | 0.549 | – | protein stability index (Saccharomyces cerevisiae [2]): 0.668 |
| AITLPMCPLLLD | 0.608 | – | protein stability index (Saccharomyces cerevisiae [2]): 0.684 |
| AITLPMCPLLLK | 0.269 | – | protein stability index (Saccharomyces cerevisiae [2]): 0.653 |
| AITLPMCPLLLM | 0.505 | – | protein stability index (Saccharomyces cerevisiae [2]): 0.545 |
| AITLPMCPLLRR | 0.62 | – | protein stability index (Saccharomyces cerevisiae [2]): 0.717 |
| AITLPMCPLLSR | 0.573 | – | protein stability index (Saccharomyces cerevisiae [2]): 0.594 |
| AITLPMCPLLTR | 0.561 | – | protein stability index (Saccharomyces cerevisiae [2]): 0.606 |
| AITLPMCPLLYR | 0.529 | – | protein stability index (Saccharomyces cerevisiae [2]): 0.652 |
| AITLPMCPLQLR | 0.608 | – | protein stability index (Saccharomyces cerevisiae [2]): 0.68 |
| AITLPMCPLVLR | 0.233 | – | protein stability index (Saccharomyces cerevisiae [2]): 0.646 |
| PSLAASFWRDVG | 0.645 | 0.695 | – |
| PSLAASFWRLVG | 0.135 | 0.688 | – |
| PSLAASFWRVQG | 0.155 | 0.672 | – |
| PSLAASFWRVVA | 0.131 | 0.68 | – |

| Sequence | protein stability index (Saccharomyces cerevisiae [1]) | protein stability index (Saccharomyces cerevisiae [3]) | other results |
| --- | --- | --- | --- |
| PSLAASFWRVVG | 0.146 | 0.686 | protein stability index (Saccharomyces cerevisiae [4]; genetic background: cdc34-1, temperature: 37 C): 0.595 ± 0.1; protein stability index (Saccharomyces cerevisiae [4]; genetic background: cdc53-1, temperature: 37 C): 0.749 ± 0.016; protein stability index (Saccharomyces cerevisiae [4]; genetic background: das1 deletion, temperature: 30 C): 0.694 ± 0.051; protein stability index (Saccharomyces cerevisiae [4]; genetic background: das1 deletion, temperature: 37 C): 0.7397 ± 0.0053; protein stability index (Saccharomyces cerevisiae [4]; genetic background: doa10 deletion, temperature: 30 C): 0.102 ± 0.031; protein stability index (Saccharomyces cerevisiae [4]; genetic background: wild type, temperature: 30 C): 0.109 ± 0.037; protein stability index (Saccharomyces cerevisiae [4]; genetic background: wild type, temperature: 37 C): 0.243 ± 0.0024; protein stability index (Saccharomyces cerevisiae [5]): 0.197 ± 0.013 |
| PSLAASFWRVVN | 0.133 | 0.67 | – |
| PSLAASFWRVVY | 0.636 | 0.682 | – |
| PSLAASFWTVVG | 0.62 | 0.708 | – |
| PSLAASFYRVVG | 0.625 | 0.689 | – |
| PSLAASKWRVVG | 0.138 | 0.666 | – |
| PSLAASLWRVVG | 0.133 | 0.673 | – |
| PSLAASVWRVVG | 0.162 | 0.661 | – |
| PSLAPSFWRVVG | 0.136 | 0.682 | – |
| PSLARSFWRVVG | 0.293 | 0.7 | – |
| PSNAASFWRVVG | 0.162 | 0.686 | – |
| PYKRNHLIKLLN | 0.141 | 0.6 | – |
| QRGAVGGWRLVG | 0.161 | 0.655 | – |
| RLIDPLPVQFLN | 0.121 | 0.62 | – |
| RLIHPLPVQFLN | 0.0474 | 0.616 | – |
| RLINPLPVQFLN | 0.0773 | 0.668 | – |
| RLIQILPVQFLN | 0.0377 | 0.546 | – |
| RLIQPLAVQFLN | 0.0616 | 0.6 | – |
| RLIQPLHVQFLN | 0.054 | 0.61 | – |
| RLIQPLPVFFLN | 0.0542 | 0.586 | – |
| RLIQPLPVQFLNH | 0.646 | 0.661 | – |
| RLIQPLPVQFLNN | 0.432 | 0.663 | – |
| RLIQPLPVQFLNP | 0.65 | 0.664 | – |
| RLIQPLPVQFLV | 0.0819 | 0.643 | – |
| RLIQPLPVQFLY | 0.28 | 0.682 | – |
| RLIQPLPVQFSN | 0.591 | 0.601 | – |
| RLIQPLPVQGLN | 0.659 | 0.739 | – |

| Sequence | protein stability index (Saccharomyces cerevisiae [1]) | protein stability index (Saccharomyces cerevisiae [3]) | other results |
| --- | --- | --- | --- |
| RLIQPLPVQQLN | 0.125 | 0.596 | – |
| RLIQPLPVQRLN | 0.0805 | 0.643 | – |
| RLIQPLPVRFLN | 0.0593 | 0.6 | – |
| RLIQPLQVQFLN | 0.0288 | 0.63 | – |
| RLIQPWPVQFLN | 0.0573 | 0.545 | – |
| RLIQYLPVQFLN | 0.0219 | 0.637 | – |
| RLVQPLPVQFLN | 0.0538 | 0.628 | – |
| RVVYLSCVACIN | 0.0144 | 0.0603 | – |
| TDKRNHLIKLLN | 0.12 | 0.577 | – |
| VRGAVDGWRLVG | 0.156 | 0.67 | – |
| VRGAVGAWRLVG | 0.144 | 0.704 | – |
| VRGAVGGTRLVG | 0.63 | 0.673 | – |
| VRGAVGGWDLVG | 0.664 | 0.656 | – |
| VRGAVGGWRLEG | 0.642 | 0.69 | – |
| VRGAVGGWRLIG | 0.146 | 0.674 | – |
| VRGAVGGWRLVC | 0.143 | 0.634 | – |
| VRGAVGGWRLVGG | 0.66 | 0.682 | – |
| VRGAVGGWRLVGW | 0.666 | 0.668 | – |
| VRGAVGGWRPVG | 0.667 | 0.671 | – |
| VRGAVGGWRWVG | 0.144 | 0.682 | – |
| VRGAVGGWVLVG | 0.202 | 0.659 | – |
| VRGAVGGWWLVG | 0.455 | 0.669 | – |
| VRGAVGVWRLVG | 0.16 | 0.665 | – |
| VRGIVGGWRLVG | 0.171 | 0.682 | – |
| VRGQVGGWRLVG | 0.147 | 0.677 | – |
| VRRAVGGWRLVG | 0.145 | 0.695 | – |

From the supplement of paper PMC10724198
